# Experiments:
# [1] = target: Schizosaccharomyces pombe Rpn10, full-length (residues 1-243) (Schizosaccharomyces pombe) (UniProt O94444); experiment: AUC
# [2] = target: Schizosaccharomyces pombe Rpn10, full-length (residues 1-243) (Schizosaccharomyces pombe) (UniProt O94444); experiment: ITC
# [3] = target: Schizosaccharomyces pombe Rpn10, full-length (residues 1-243) (Schizosaccharomyces pombe) (UniProt O94444); experiment: SPR
# Schizosaccharomyces pombe Rpn10, full-length (residues 1-243) (Schizosaccharomyces pombe), sequence (O94444 whole entry, the tested form may be a part): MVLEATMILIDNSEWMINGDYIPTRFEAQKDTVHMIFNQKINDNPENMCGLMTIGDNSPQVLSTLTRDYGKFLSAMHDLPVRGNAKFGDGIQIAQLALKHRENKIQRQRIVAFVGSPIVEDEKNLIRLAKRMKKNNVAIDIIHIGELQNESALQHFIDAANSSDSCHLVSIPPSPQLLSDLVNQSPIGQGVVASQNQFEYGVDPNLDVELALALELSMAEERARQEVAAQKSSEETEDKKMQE
Substance,stoichiometry N [1],Kd [2],stoichiometry N [2],Kd [3],KD of each of the two equivalent sites [2]
Lys48-linked diubiquitin (from UniProt P0CG47 1-76; P0CG47 1-76),1,13.9 µM,1,35 µM,
Lys63-linked diubiquitin (from UniProt P0CG47 1-76; P0CG47 1-76),1,,,,134 µM

# From PMC2962499
